Patent publication US20130064788A1 (ELEVEN BIOTHERAPEUTICS, published 2013)

T1: pre-assembled IL-17RC-IL-17A complex (IL-17A captured by immobilised IL-17RC) (human, UniProt Q8NAC3 21-538; Q16552 25-155, C-terminal biotin on BirA tag)
T1 construct: One receptor and one IL-17A dimer on the SPR chip; also called existing IL-17RC-IL-17A complex
T1 sequence 1: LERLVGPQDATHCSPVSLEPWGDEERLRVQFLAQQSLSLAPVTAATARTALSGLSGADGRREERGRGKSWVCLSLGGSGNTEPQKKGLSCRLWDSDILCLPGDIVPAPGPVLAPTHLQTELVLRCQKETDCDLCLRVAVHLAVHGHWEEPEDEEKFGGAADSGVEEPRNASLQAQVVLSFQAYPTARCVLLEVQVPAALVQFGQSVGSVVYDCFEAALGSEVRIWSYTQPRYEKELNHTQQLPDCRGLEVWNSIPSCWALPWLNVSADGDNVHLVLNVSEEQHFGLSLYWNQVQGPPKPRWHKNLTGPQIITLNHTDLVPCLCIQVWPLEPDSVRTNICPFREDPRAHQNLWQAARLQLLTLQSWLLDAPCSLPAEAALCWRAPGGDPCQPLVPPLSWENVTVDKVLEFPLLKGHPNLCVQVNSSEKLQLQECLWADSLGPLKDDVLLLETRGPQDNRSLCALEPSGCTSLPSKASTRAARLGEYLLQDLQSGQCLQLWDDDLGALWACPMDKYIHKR
T1 sequence 2: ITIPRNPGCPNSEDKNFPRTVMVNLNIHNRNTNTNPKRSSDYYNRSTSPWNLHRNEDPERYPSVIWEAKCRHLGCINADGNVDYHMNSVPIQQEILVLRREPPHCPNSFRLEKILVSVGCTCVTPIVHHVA

T2: human IL-17RA extracellular domain (ECD) (human, UniProt Q96F46 32-317)
T2 construct: For SPR it was made with and without a C-terminal BirA ligase tag: the biotinylated form was immobilised and the other was injected; For the crystal it was treated with endoglycosidase H and lysine-methylated; also called IL-17RA ECD; IL-17RA ectodomain
T2 sequence: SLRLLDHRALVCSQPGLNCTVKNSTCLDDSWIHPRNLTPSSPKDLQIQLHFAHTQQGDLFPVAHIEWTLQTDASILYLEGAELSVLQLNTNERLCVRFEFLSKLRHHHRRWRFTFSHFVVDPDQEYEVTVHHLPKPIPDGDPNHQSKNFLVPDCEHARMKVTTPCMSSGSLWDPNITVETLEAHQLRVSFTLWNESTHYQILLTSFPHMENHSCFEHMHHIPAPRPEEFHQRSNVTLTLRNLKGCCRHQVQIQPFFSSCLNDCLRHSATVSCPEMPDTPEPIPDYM

T3: pre-assembled IL-17RB-IL-25 complex (IL-25 captured by immobilised IL-17RB) (human, UniProt Q9NRM6 18-292; Q9H293 33-177, C-terminal biotin on BirA tag)
T3 construct: One receptor and one IL-25 dimer on the SPR chip
T3 sequence 1: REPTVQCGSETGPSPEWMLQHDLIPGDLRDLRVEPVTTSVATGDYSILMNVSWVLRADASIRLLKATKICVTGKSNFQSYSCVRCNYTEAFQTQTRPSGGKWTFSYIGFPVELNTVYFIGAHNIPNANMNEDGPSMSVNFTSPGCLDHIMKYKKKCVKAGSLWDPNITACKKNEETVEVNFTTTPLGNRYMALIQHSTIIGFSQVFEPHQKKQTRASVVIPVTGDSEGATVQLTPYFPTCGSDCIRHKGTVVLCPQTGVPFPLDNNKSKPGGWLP
T3 sequence 2: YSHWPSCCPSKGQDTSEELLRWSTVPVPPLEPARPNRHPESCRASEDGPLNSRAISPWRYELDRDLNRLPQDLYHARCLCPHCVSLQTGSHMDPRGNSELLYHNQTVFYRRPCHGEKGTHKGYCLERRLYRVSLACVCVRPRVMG

B1: IL-17RC extracellular domain (receptor)
chain: T1 sequence 1
notes: Expressed in 293S GnTI- cells with and without a C-terminal BirA tag; An additional C-terminal Fc tag was cleaved by 3C protease
B2: mutant single-chain IL-17A (R47E, S65K subunit - (G4S)6 linker - N89A, C-terminally truncated subunit - His tag) (designed binder)
chain: GITIPRNPGCPNSEDKNFPRTVMVNLNIHNRNTNTNPKRSSDYYNESTSPWNLHRNEDPERYPKVIWEAKCRHLGCINADGNVDYHMNSVPIQQEILVLRREPPHCPNSFRLEKILVSVGCTCVTPIVHHVASGGGGSGGGGSGGGGSGGGGSGGGGSGGGGSGITIPRNPGCPNSEDKNFPRTVMVNLNIHNRNTNTNPKRSSDYYNRSTSPWNLHRNEDPERYPSVIWEAKCRHLGCINADGNVDYHMASVPIQQEILVLRREPPHCPNSFRLEKILVSVGCTCVTPASHHHHHH
notes: also called sc17A-DN; mutant single-chain IL-17A protein
B3: IL-17F homodimer (ligand, not shown: small tags and cut ends)
chain: RKIPKVGHTFFQKPESCPPVPGGSMKLDIGIINENQRVSMSRNIESRSTSPWNYTVTWDPNRYPSEVVQAQCRNLGCINAQGKEDISMNSVPIQQETLVVRRKHQGCSVSFQLEKVLVTVGCTCVTPVIHHVQ
notes: Printed as full length IL-17F with a C-terminal hexa-His tag, secreted by High Five insect cells; It is a disulfide-linked homodimer; also called IL-17F/F
B4: IL-25 (IL-17E) (ligand)
chain: T3 sequence 2
notes: Expressed by High Five cells with a C-terminal hexa-His tag; It is treated as a dimeric cytokine in the SPR scheme; not shown: C-terminal hexa-His tag
B5: IL-17RB extracellular domain (receptor)
chain: T3 sequence 1
notes: Expressed with and without a C-terminal BirA tag

Experiments:
[1] = biological target: T1, pre-assembled IL-17RC-IL-17A complex …; test: SPR; second receptor injected over IL-17A captured by immobilised IL-17RC
Excerpt: (§1) Whilst others have reported the binding affinities of IL-17RA and IL-17RC for IL-17A and IL-17F (7, 22), we considered it pertinent to assess the binding affinity of the second receptor-binding site. The strategy was to immobilize one receptor on the SPR chip at a low coupling density in order to minimize possible homo-dimerization (e.g. cross-linking) of the receptors on the chip. The dimeric IL-17 cytokine was then captured by this receptor so that each receptor would be bound to one dimeric IL-17 ligand, leaving an exposed and accessible second receptor-binding site. The second receptor was subsequently passed over the preformed receptor-cytokine complexes to measure the affinity of the second receptor-binding event. In this fashion, the complex was assembled in a stepwise manner and each of the binding affinities was measured (FIG. 3).
(§2) Binding affinities were calculated via surface plasmon resonance (SPR) on a BIACORE® T100 (GE Healthcare). C-terminally biotinylated IL-17 receptors were coupled to immobilized streptavidin on either an SA or CM4-sensor chip (GE Healthcare). An irrelevant, biotinylated protein was captured at equivalent immobilization densities to control flow cells. […] Data was analyzed using BIACORE® T100 evaluation software Version 2.0 (GE Healthcare). […]

[2] = biological target: T2, human IL-17RA extracellular domain (ECD); test: plate binding assay to the soluble extracellular domain of IL-17RA
[3] = biological target: B1; test: SPR, Biacore T100; biotinylated receptor on streptavidin chip, cytokine injected
Excerpt: as §1, §2

[4] = biological target: T2, human IL-17RA extracellular domain (ECD); test: as above
Excerpt: as §1, §2

[5] = biological target: T2, human IL-17RA extracellular domain (ECD); test: SPR, Biacore T100
Description: (§3) IL-17RA has been implicated in IL-17E (also known as IL-25) signaling together with IL-17RB (23). IL-25 promotes Th2 inflammatory responses and shares approximately ˜20% identity with IL-17A and IL-17F. […] We hypothesized that IL-17RA may only bind IL-25 once IL-25 is captured by IL-17RB. To test this hypothesis, we immobilized IL-17RB on an SPR chip, captured IL-25 and measured the affinity of IL-17RA for the IL-17RB-IL-25 complex. […] At concentrations up to 50 μM, no interaction could be observed between IL-17RA and IL-25, or between the IL-17RB-IL-25 complex and a second IL-17RB molecule.
as §2, with “cells. To measure the second receptor binding interaction, the cytokine was first captured to the immobilized receptor, followed by the second receptor injection. Low coupling densities (200-400 RU) and excess cytokine concentrations were used to optimize the number of cytokine homodimers bound to a single receptor.” for “cells.”

[6] = biological target: T3, pre-assembled IL-17RB-IL-25 complex …; test: SPR, Biacore T100; second receptor injected over IL-25 captured by immobilised IL-17RB
Description: as §3
as §2, with “cells. To measure the second receptor binding interaction, the cytokine was first captured to the immobilized receptor, followed by the second receptor injection. Low coupling densities (200-400 RU) and excess cytokine concentrations were used to optimize the number of cytokine homodimers bound to a single receptor.” for “cells.”

Binder: B1
- Kd [1]: 8000 nM

Binder: B2
- affinity relative to wild-type IL-17A (factor) [2]: ≤ 4 fold

Binder: B3
- Kd [3]: 4.4 nM
- Kd [4]: 292 nM

Binder: B4
- binding result [5]: no binding (tested: up to 50 µM)

Binder: B5
- binding result [6]: no binding (tested: up to 50 µM)
